The record followed here is paper PMC12698293.

This assay addresses LgBiT (large BiT fragment of split NanoLuc) secreted from GCN4-LgBiT receiver cells. The assay is described as follows: split reporter.

A value given as a limit tells only on which side of the number the result lay.

For the substance “scFv-SmBiT fusion secreted by sender^high cells (anti-GCN4 scFv, HA tag, G4Sx4 linker, high-affinity SmBiT peptide)”, the fold signal turn-on (co-culture against cells cultured individually) was > 130 fold.
